# Measured values taken from paper PMC7583906, “Functional Recovery of a GCDH Variant Associated to Severe Deflavinylation—Molecular Insights into Potential Beneficial Effects of Riboflavin Supplementation in Glutaric Aciduria-Type I Patients” (International Journal of Molecular Sciences, 2020).
# Where “and” joins values, the source holds several entries; their conditions need not be identical. Equal entries are not always repeated.
# Target: the molecule itself
# Test: SEC; Superdex 200 10/300 GL, 10 mM HEPES pH 7.8, 150 mM NaCl, typically 0.5 mg applied; holoprotein (FAD bound) as purified; Gaussian deconvolution of the profile
row,Protein,stoichiometry N
1,"glutaryl-coenzyme A (CoA) dehydrogenase, wild-type (GCDH-WT) (enzyme, human, human glutaryl-CoA dehydrogenase (GCDH), recombinant; source: E. coli BL21 (DE3), soluble extract incubated overnight with excess FAD, purified (HisTrap HP)) EFDWQDPLVLEEQLTTDEILIRDTFRTYCQERLMPRILLANRNEVFHREIISEMGELGVLGPTIKGYGCAGVSSVAYGLLARELERVDSGYRSAMSVQSSLVMHPIYAYGSEEQRQKYLPQLAKGELLGCFGLTEPNSGSDPSSMETRAHYNSSNKSYTLNGTKTWITNSPMADLFVVWARCEDGCIRGFLLEKGMRGLSAPRIQGKFSLRASATGMIIMDGVEVPEENVLPGASSLGGPFGCLNNARYGIAWGVLGASEFCLHTARQYALDRMQFGVPLARNQLIQKKLADMLTEITLGLHACLQLGRLKDQDKAAPEMVSLLKRNNCGKALDIARQARDMLGGNGISDEYHVIRHAMNLEAVNTYEGTHDIHALILGRAITGIQAFTASK",4
2,"GCDH-p.Val400Met clinical variant (enzyme, human, human glutaryl-CoA dehydrogenase (GCDH), disease variant p.Val400Met of glutaric aciduria type I, recombinant; The assays tell the states apart; also called holo GCDH-p.Val400Met; apo GCDH-p.Val400Met; source: E. coli BL21 (DE3), purified (HisTrap HP); holo form from soluble extract incubated overnight with excess FAD, apo form without the FAD incubation) EFDWQDPLVLEEQLTTDEILIRDTFRTYCQERLMPRILLANRNEVFHREIISEMGELGVLGPTIKGYGCAGVSSVAYGLLARELERVDSGYRSAMSVQSSLVMHPIYAYGSEEQRQKYLPQLAKGELLGCFGLTEPNSGSDPSSMETRAHYNSSNKSYTLNGTKTWITNSPMADLFVVWARCEDGCIRGFLLEKGMRGLSAPRIQGKFSLRASATGMIIMDGVEVPEENVLPGASSLGGPFGCLNNARYGIAWGVLGASEFCLHTARQYALDRMQFGVPLARNQLIQKKLADMLTEITLGLHACLQLGRLKDQDKAAPEMVSLLKRNNCGKALDIARQARDMLGGNGISDEYHMIRHAMNLEAVNTYEGTHDIHALILGRAITGIQAFTASK",4 and 2
